In patent US20260055369A1 (H LEE MOFFITT CANCER CENTER AND RESEARCH INSTITUTE, published 2026):
Residue numbers refer to the chain shown, from its start.

Tests used:
[1] = biological target: T1, Notch1 on CHO-K1 N1-Gal4 fluorescent reporter cells (UniProt P46531 19-2555, limits assumed); test: cell-based or functional assay
[2] = biological target: T1, Notch1 on CHO-K1 N1-Gal4 fluorescent …; test: flow cytometry, ligand tetramers on Notch1-overexpressing CHO-K1 N1-Gal4 cells
[3] = biological target: Notch1 on U2OS hNotch1-Gal4 luciferase reporter cells (human, UniProt P46531 19-2555); test: cell-based or functional assay
Notch1 on U2OS hNotch1-Gal4 luciferase reporter cells, sequence (P46531 19-2555): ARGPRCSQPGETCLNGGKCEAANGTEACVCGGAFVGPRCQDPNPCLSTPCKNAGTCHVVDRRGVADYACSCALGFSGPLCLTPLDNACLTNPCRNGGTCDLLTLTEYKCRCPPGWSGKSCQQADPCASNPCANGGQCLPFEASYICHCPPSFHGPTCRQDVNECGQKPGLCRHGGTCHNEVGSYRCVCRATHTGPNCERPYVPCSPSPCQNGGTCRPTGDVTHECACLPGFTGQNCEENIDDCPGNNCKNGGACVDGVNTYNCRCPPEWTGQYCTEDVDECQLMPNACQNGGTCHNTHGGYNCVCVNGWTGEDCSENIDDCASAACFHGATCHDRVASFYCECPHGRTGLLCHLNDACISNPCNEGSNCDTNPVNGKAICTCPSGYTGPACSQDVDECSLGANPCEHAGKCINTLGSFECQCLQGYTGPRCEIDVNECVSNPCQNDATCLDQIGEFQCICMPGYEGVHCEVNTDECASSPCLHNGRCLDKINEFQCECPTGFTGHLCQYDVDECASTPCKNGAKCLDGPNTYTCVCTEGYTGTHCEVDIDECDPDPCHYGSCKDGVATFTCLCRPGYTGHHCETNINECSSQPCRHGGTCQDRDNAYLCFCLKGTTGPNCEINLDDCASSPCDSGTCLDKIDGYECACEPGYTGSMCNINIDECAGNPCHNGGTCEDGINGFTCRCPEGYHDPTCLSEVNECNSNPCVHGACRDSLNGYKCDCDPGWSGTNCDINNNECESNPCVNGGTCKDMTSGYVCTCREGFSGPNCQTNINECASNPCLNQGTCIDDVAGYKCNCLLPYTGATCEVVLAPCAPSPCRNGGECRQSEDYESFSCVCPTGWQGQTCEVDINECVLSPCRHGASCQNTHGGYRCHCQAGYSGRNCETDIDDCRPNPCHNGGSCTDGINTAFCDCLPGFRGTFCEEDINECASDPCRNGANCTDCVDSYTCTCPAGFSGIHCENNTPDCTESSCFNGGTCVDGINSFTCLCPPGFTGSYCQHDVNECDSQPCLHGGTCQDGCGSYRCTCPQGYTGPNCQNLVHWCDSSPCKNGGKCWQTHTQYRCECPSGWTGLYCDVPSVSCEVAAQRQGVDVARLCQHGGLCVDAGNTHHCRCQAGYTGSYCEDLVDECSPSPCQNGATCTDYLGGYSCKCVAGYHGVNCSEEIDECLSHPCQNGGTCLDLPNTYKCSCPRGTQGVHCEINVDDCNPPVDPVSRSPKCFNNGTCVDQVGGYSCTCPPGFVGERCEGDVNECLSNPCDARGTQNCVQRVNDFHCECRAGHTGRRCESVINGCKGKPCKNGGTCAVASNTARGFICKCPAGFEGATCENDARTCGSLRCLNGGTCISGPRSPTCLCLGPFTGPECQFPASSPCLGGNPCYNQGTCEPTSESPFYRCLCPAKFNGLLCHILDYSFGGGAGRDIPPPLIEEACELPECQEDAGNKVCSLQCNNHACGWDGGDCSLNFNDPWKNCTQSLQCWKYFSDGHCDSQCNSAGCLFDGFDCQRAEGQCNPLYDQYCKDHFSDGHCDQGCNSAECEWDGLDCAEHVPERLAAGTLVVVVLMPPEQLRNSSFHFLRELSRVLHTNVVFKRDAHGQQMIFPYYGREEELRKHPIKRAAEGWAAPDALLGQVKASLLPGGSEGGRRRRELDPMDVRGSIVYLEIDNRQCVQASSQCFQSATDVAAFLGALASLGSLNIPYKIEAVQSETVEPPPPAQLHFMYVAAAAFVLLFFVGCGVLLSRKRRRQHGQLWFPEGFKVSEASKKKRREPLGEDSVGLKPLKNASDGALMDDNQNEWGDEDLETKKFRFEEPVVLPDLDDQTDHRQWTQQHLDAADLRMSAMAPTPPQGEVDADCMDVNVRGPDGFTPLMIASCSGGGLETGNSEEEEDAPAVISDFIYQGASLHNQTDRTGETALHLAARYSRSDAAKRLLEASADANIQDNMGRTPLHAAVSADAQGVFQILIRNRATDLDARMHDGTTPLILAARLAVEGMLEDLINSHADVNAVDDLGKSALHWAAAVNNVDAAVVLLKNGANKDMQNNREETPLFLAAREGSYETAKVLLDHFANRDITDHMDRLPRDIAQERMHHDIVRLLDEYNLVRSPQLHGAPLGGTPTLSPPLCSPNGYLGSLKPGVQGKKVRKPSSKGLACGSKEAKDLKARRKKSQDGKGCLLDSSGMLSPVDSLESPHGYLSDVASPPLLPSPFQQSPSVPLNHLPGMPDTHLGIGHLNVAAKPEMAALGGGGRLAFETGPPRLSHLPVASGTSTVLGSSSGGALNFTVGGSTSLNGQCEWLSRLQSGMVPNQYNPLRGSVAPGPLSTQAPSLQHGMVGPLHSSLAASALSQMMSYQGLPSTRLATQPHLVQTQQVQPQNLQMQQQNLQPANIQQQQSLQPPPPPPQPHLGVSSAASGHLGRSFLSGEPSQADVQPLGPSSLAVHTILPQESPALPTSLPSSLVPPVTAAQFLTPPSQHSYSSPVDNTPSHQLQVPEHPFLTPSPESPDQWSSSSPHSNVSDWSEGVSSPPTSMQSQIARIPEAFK

[4] = biological target: Notch3 on U2OS Notch3-Gal4 luciferase reporter cells (human, UniProt Q9UM47 40-2321); test: cell-based or functional assay
[5] = biological target: Notch2 on U2OS Notch2-Gal4 luciferase reporter cells (human, UniProt Q04721 26-2471); test: cell-based or functional assay
Notch2 on U2OS Notch2-Gal4 luciferase reporter cells, sequence (Q04721 26-2471): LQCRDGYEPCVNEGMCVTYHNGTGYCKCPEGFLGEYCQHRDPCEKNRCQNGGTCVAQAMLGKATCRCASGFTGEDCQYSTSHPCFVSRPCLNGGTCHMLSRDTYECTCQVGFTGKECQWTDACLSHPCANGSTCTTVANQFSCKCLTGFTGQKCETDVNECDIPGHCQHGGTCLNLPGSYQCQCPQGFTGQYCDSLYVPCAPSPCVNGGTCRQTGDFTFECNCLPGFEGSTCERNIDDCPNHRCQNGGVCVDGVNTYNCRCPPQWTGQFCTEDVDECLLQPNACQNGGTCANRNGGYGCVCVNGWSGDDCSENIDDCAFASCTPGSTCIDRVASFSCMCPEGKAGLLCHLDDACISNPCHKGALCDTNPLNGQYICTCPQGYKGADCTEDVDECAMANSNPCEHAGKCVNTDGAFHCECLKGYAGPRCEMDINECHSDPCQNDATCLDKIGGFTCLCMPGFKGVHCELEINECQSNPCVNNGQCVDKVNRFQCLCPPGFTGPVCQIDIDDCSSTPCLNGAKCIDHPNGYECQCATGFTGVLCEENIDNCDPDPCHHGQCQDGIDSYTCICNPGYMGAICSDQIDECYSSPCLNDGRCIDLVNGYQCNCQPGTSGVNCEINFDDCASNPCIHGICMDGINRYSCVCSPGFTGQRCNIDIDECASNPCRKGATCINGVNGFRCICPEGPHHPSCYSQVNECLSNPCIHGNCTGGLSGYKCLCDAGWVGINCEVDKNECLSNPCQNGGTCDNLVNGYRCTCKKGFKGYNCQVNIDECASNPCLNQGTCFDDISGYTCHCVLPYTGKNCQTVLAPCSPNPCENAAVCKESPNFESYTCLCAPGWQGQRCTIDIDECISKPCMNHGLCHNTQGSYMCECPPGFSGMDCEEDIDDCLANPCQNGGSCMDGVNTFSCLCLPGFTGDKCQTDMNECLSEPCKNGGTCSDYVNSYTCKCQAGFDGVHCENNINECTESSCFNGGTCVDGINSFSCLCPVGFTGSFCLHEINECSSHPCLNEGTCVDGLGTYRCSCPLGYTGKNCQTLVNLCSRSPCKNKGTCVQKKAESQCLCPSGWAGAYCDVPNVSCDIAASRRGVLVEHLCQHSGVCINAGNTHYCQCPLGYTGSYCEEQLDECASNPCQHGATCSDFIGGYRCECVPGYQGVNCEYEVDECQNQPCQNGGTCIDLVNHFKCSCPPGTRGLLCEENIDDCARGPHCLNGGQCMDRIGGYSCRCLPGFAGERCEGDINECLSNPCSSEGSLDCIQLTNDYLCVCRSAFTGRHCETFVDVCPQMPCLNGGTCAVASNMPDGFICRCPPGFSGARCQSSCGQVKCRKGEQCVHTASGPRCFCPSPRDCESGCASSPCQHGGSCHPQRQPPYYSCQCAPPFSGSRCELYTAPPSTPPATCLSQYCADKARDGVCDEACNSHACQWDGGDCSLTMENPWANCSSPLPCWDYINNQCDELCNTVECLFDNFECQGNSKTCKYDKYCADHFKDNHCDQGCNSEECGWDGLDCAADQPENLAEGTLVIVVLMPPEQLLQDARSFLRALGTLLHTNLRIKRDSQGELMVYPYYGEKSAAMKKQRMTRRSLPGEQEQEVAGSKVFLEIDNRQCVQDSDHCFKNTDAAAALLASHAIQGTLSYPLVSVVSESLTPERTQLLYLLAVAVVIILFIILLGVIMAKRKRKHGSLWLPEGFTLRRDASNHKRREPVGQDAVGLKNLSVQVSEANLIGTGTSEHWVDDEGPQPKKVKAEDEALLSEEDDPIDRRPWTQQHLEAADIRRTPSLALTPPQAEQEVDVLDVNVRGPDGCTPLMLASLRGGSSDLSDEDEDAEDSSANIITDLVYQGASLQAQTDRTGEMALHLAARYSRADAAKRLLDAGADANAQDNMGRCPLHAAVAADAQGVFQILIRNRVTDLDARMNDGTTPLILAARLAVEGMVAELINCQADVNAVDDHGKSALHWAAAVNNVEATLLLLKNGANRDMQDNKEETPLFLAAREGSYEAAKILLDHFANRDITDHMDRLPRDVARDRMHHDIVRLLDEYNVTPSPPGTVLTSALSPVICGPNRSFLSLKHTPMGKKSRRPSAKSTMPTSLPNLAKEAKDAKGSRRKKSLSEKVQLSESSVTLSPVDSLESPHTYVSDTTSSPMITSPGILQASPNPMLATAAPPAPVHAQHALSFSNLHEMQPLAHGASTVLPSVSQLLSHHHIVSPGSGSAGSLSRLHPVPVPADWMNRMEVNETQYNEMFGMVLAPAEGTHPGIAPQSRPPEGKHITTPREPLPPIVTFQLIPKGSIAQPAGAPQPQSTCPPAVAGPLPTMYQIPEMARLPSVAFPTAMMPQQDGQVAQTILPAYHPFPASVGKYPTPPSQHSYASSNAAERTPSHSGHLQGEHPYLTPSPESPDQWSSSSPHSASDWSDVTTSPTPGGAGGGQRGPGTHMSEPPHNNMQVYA

[6] = biological target: T2, mouse Notch1 (EGF6-13, residues 221-526), biotinylated (mouse, UniProt Q01705 221-526, Biotinylated in vitro by BirA at the C-terminal BAP-tag (tag not in the letters).); test: SPR steady-state binding isotherm, biotinylated mNotch1 (EGF6-13) on a streptavidin chip, DLL4 variant as analyte, response normalized to the maximum (100%)
T2 construct: Immobilised on a streptavidin chip for SPR; also called mNotch1 EGF6-13; mNotch1 (6-13)
T2 sequence: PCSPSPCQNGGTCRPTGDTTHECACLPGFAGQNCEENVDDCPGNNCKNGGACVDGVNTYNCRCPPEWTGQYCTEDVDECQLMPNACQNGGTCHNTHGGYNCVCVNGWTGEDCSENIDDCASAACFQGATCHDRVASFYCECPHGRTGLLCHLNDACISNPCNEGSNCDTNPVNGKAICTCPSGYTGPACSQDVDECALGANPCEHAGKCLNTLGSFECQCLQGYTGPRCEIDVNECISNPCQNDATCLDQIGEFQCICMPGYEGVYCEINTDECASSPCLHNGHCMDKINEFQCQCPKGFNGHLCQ
Text: Extended Data FIG. 5. Quantitation of mNotch1 binding to DLL4 variants, ligand adsorption, and Notch surface expression. a, SPR binding isotherms were fitted to a 1:1 binding model to determine the binding affinity between mNotch1 (6-13) and each DLL4 variant. b, Determination of plate adsorption for WT DLL4 and Delta^MAX by ELISA. Data represent mean values±s.d. of three biological replicates. c, Binding assay of WT DLL4 and Delta^MAX tetramers to Notch1 overexpressing CHO-K1 N1-Gal4 cells was measured by flow cytometry. Data represent mean values±s.d. of three biological replicates. d, The level of Notch1 expression on the surface of cell lines used in this study was determined by flow cytometry. Data represent mean values±s.d. of three biological replicates. e, Percentage of CD8⁺ T cells expressing Notch1 (upper graph) and Notch2 (bottom graph) on cell surface determined by flow cytometry after stimulation with K32-WT DLL4, K32-Delta^MAX, or K32 for 96 hours. Data represent mean values±s.e.m. of three biological replicates. Delta^MAX statistics are referred to WT DLL4. *P<0.05, ****P<0.0001 (Two-way ANOVA).
Equilibrium dissociation constants were determined by surface plasmon resonance using a Biacore T200 instrument (GE Healthcare). […]

T1 sequence (P46531 19-2555 limits assumed): as the sequence (P46531 19-2555) above

B1: WT DLL4 (N-EGF5, residues 27-400), C-terminally biotinylated (ligand)
chain: SGVFQLQLQEFINERGVLASGRPCEPGCRTFFRVCLKHFQAVVSPGPCTFGTVSTPVLGTNSFAVRDDSSGGGRNPLQLPFNFTWPGTFSLIIEAWHAPGDDLRPEALPPDALISKIAIQGSLAVGQNWLLDEQTSTLTRLRYSYRVICSDNYYGDNCSRLCKKRNDHFGHYVCQPDGNLSCLPGWTGEYCQQPICLSGCHEQNGYCSKPAECLCRPGWQGRLCNECIPHNGCRHGTCSTPWQCTCDEGWGGLFCDQDLNYCTHHSPCKNGATCSNSGQRSYTCTCRPGYTGVDCELELSECDSNPCRNGGSCKDQEDGYHCLCPPGYYGLHCEHSTLSCADSPCFNGGSCRERNQGANYACECPPNFTGSNCEGLNDIFEAQKIEWHE
modifications: biotin on the C-terminal BAP-tag (BirA ligase)
EC50 of Notch1 activation, fluorescent reporter cells, biotinylated ligand on streptavidin plates [1]: 16 nM

B2: DLL4^MAX (N-EGF5, residues 27-400), C-terminally biotinylated (ligand)
chain: B1 chain with G2S, F81L, I117F, H168Y, L180P, N231P, T245L, F254Y, S275R, Q279P
modifications: biotin on the C-terminal BAP-tag (BirA ligase)
notes: Used coupled to streptavidin (plates, beads, or as tetramers for cell staining); also called biotinylated Delta^MAX; C-terminally anchored Delta^MAX; not shown: His-tag
fold increase of MFI compared to WT DLL4 [2]: 4.7 fold
EC50 of Notch1 activation, fluorescent reporter cells, biotinylated ligand on streptavidin plates [1]: 1.7 nM
Notch1 reporter activity with 25 µm coated beads, against DLL4 microbeads [1]: 4.5 fold
increase in Notch1 activation relative to control, Delta^MAX-coated streptavidin beads [3]: 21 fold
increase in Notch1 activation relative to control, oriented coupling on streptavidin plates [3]: 50 fold
luciferase reporter signalling at 50 nM immobilised ligand, against WT DLL4 [3]: 2 fold
luciferase reporter signalling at 50 nM immobilised ligand, against WT DLL4 [4]: 3 fold
luciferase reporter signalling at 50 nM immobilised ligand, against WT DLL4 [5]: 2.5 fold

B3: human wild-type DLL4 (N-EGF5, residues 27-400), non-biotinylated (ligand)
chain: SGVFQLQLQEFINERGVLASGRPCEPGCRTFFRVCLKHFQAVVSPGPCTFGTVSTPVLGTNSFAVRDDSSGGGRNPLQLPFNFTWPGTFSLIIEAWHAPGDDLRPEALPPDALISKIAIQGSLAVGQNWLLDEQTSTLTRLRYSYRVICSDNYYGDNCSRLCKKRNDHFGHYVCQPDGNLSCLPGWTGEYCQQPICLSGCHEQNGYCSKPAECLCRPGWQGRLCNECIPHNGCRHGTCSTPWQCTCDEGWGGLFCDQDLNYCTHHSPCKNGATCSNSGQRSYTCTCRPGYTGVDCELELSECDSNPCRNGGSCKDQEDGYHCLCPPGYYGLHCEHSTLSCADSPCFNGGSCRERNQGANYACECPPNFTGSNCEHHHHHHHH
EC50 of Notch1 activation, fluorescent reporter cells, ligand non-specifically adsorbed to plates [1]: 2.3 ng/mm^2

B4: DLL4.v1 (N-EGF5), non-biotinylated (ligand)
chain: B3 chain with G2S, F81L, I117F, H168Y, L180P
notes: also called human DLL4 with the five E12 mutations (Site 1+Site 2)
EC50 (read off the curve) [6]: ~100 nM
